± gives the uncertainty stated by the source.

The data set in a line: self-splicing fitness, log relative to wild type (ln ratio); higher = more splicing; Tetrahymena group I intron in knt gene, E. coli kanamycin selection, DiMSum; sequences stand for … in CUCUCU…GGAGGGAAAAGUUAUCAGGCAUGCACCUGGUAGCUAGUCUUUAAACCAAUAGAUUGCAUCGGUUUAAAAGGCAAGACCGUCAAAUUGCGGGAAAGGGGUCAACAGCCGUUCAGUACCAAGUCUCAGGGGAAACUUUGAGAUGGCCUUGCAAAGGGUAUGGUAAUAAGCUGACGGACAUGGUCCUAACCACGCAGCCAAGUCCUAAGUCAACAGAUCUUCUGUUGAUAUGGAUGCAGUUCACAGACUAAAUGUCGGUCGGGGAAGAUGUAUUCUUCUCAUAAGAUAUAGUCGGACCUCUCCUUAAUGGGAGCUAGCGGAUGAAGUGAUGCAACACUGGAGCCGCUGGGAACUAAUUUGUAUGCGAAAGUAUAUUGAUUAGUUUUGGAGUACUCGUGGUCG
An outline of the steps:
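Six replicate transformations of E. coli BL21(DE3) with a pET-22b(+) library were grown overnight at 37°C or 30°C. The library randomised all eight P1ex-region intron nucleotides, the intron lying in the knt kanamycin-resistance gene, and plates were LB agar with or without 25 μg/mL kanamycin plus 100 μg/mL carbenicillin, 50 μM IPTG and 0.2% rhamnose. Pooled colonies were amplicon-sequenced on an Illumina HiSeq 2500, and fitness is the DiMSum error-weighted combination of wild-type-normalised replicate fold changes, kanamycin versus none.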

For the sequence UAGGAGCAAUAUUACGCCGA, the “self-splicing fitness (ln)” value was -2.76 ± 0.21 (30 °C) and -0.577 ± 0.27 (37 °C).

As to AACGAGCAAUAUUACGCUUU, the “self-splicing fitness (ln)” value is -3.9 ± 0.17 (30 °C) and -2.31 ± 0.14 (37 °C).

Take GCCUAGCAAUAUUACGCAGC: the “self-splicing fitness (ln)” value (30 °C) is -4.41 ± 0.36 and the “self-splicing fitness (ln)” value (37 °C) is -1.52 ± 0.19.

Regarding GUGUAGCAAUAUUACGACUU, the “self-splicing fitness (ln)” value (30 °C) is -0.0355 ± 0.15 and the “self-splicing fitness (ln)” value (37 °C) was -0.00223 ± 0.19.

Consider CGAAAGCAAUAUUACGCACU, for which the “self-splicing fitness (ln)” value was -0.573 ± 0.11 (30 °C) and 0.0275 ± 0.13 (37 °C).

With UUUGAGCAAUAUUACGACAG, the “self-splicing fitness (ln)” value was -2.8 ± 0.15 (30 °C) and -1.81 ± 0.18 (37 °C).

As for UUCUAGCAAUAUUACGCCAU, the “self-splicing fitness (ln)” value (30 °C) is -2.66 ± 0.32.

In the case of CCGUAGCAAUAUUACGACGC, for the setting “37 °C”, the “self-splicing fitness (ln)” value is -3.08 ± 0.38.

On to UUUCAGCAAUAUUACGUCUU, for which the “self-splicing fitness (ln)” value was -2.52 ± 0.17 (30 °C) and -1.36 ± 0.13 (37 °C).

In the case of GUAUAGCAAUAUUACGAUGA, the “self-splicing fitness (ln)” value (30 °C) is -1.62 ± 0.16 and the “self-splicing fitness (ln)” value (37 °C) was -0.697 ± 0.14.

As for UAUAAGCAAUAUUACGAUCC, the “self-splicing fitness (ln)” value (37 °C) is -2.05 ± 0.37.

With AUCUAGCAAUAUUACGGUAU, the “self-splicing fitness (ln)” value was -1.54 ± 0.1 (30 °C) and -1.19 ± 0.13 (37 °C).

For AUUAAGCAAUAUUACGUAGU, the “self-splicing fitness (ln)” value by setting is: (30 °C) -1.53 ± 0.071; (37 °C) -0.166 ± 0.085.

For UCUCAGCAAUAUUACGUGUU, the “self-splicing fitness (ln)” value (30 °C) is -3.47 ± 0.14 and the “self-splicing fitness (ln)” value (37 °C) was -2.73 ± 0.15.

UUUGAGCAAUAUUACGAGAU: the “self-splicing fitness (ln)” value is -3.65 ± 0.42 (30 °C) and -3.12 ± 0.37 (37 °C).

For the sequence CGUCAGCAAUAUUACGCCAG, the “self-splicing fitness (ln)” value was -0.944 ± 0.15 (30 °C) and -0.48 ± 0.23 (37 °C).

In the case of CGAUAGCAAUAUUACGAUAC, the “self-splicing fitness (ln)” value (37 °C) was -2.88 ± 0.41.

Turning to AAUUAGCAAUAUUACGACUG, the “self-splicing fitness (ln)” value by setting is: (30 °C) -1.11 ± 0.1; (37 °C) -0.677 ± 0.11.

For CGGCAGCAAUAUUACGCACA, the “self-splicing fitness (ln)” value runs as follows: (30 °C) -0.39 ± 0.1; (37 °C) -0.122 ± 0.14.

Turning to AUAUAGCAAUAUUACGUCGG, the “self-splicing fitness (ln)” value was -3.37 ± 0.33 (30 °C) and -2.03 ± 0.28 (37 °C).

GCUCAGCAAUAUUACGAUAU: the “self-splicing fitness (ln)” value reads like this: (30 °C) -0.622 ± 0.084; (37 °C) 0.0543 ± 0.09.

Take GCAGAGCAAUAUUACGAAAC: the “self-splicing fitness (ln)” value runs as follows: (30 °C) -3.28 ± 0.14; (37 °C) -2.23 ± 0.14.

With UGUGAGCAAUAUUACGCGGU, the “self-splicing fitness (ln)” value (30 °C) was -3.67 ± 0.37 and the “self-splicing fitness (ln)” value (37 °C) was -0.807 ± 0.33.

In the case of UACCAGCAAUAUUACGCCAU, the “self-splicing fitness (ln)” value was -3.27 ± 0.22 (30 °C) and -2.85 ± 0.16 (37 °C).

As for UCACAGCAAUAUUACGCCUA, the “self-splicing fitness (ln)” value is -1.95 ± 0.3 (30 °C) and -0.577 ± 0.18 (37 °C).

Consider CGUAAGCAAUAUUACGCUAC, for which the “self-splicing fitness (ln)” value (37 °C) is -1.98 ± 0.4.

For the sequence GUGCAGCAAUAUUACGUUGC, the “self-splicing fitness (ln)” value runs as follows: (30 °C) -3.82 ± 0.31; (37 °C) -2.93 ± 0.31.

Turning to CCGCAGCAAUAUUACGAGCU, the “self-splicing fitness (ln)” value by setting is: (30 °C) -2.93 ± 0.27; (37 °C) -3.37 ± 0.28.

In the case of AUCUAGCAAUAUUACGCGCU, the “self-splicing fitness (ln)” value was -1.97 ± 0.23 (30 °C) and -0.909 ± 0.2 (37 °C).

Turning to AGUCAGCAAUAUUACGUAUG, the “self-splicing fitness (ln)” value was -3.48 ± 0.18 (30 °C) and -2.43 ± 0.19 (37 °C).

In the case of AAGCAGCAAUAUUACGCCAU, the “self-splicing fitness (ln)” value runs as follows: (30 °C) -2.13 ± 0.19; (37 °C) -1.69 ± 0.28.

UACUAGCAAUAUUACGUGCG: the “self-splicing fitness (ln)” value reads like this: (30 °C) -0.684 ± 0.08; (37 °C) -1.31 ± 0.1.

As for CAAAAGCAAUAUUACGUGAA, the “self-splicing fitness (ln)” value runs as follows: (30 °C) -2.73 ± 0.085; (37 °C) -1.63 ± 0.099.

In the case of UUGAAGCAAUAUUACGAGGA, the “self-splicing fitness (ln)” value is -2.32 ± 0.16 (30 °C) and -0.555 ± 0.19 (37 °C).

With AUUGAGCAAUAUUACGUCCG, the “self-splicing fitness (ln)” value (30 °C) was -2.58 ± 0.16 and the “self-splicing fitness (ln)” value (37 °C) is -2.91 ± 0.48.

For the sequence GAGCAGCAAUAUUACGAGCA, the “self-splicing fitness (ln)” value by setting is: (30 °C) -0.982 ± 0.11; (37 °C) -0.888 ± 0.13.

With UGAAAGCAAUAUUACGGGCG, the “self-splicing fitness (ln)” value is, setting by setting: (30 °C) -0.0565 ± 0.085; (37 °C) 0.348 ± 0.11.

As to AGCUAGCAAUAUUACGGGGA, the “self-splicing fitness (ln)” value (30 °C) is -2.22 ± 0.17 and the “self-splicing fitness (ln)” value (37 °C) is -1.68 ± 0.14.

On to AUGUAGCAAUAUUACGUGCA, for which the “self-splicing fitness (ln)” value was -0.921 ± 0.13 (30 °C) and -1.01 ± 0.12 (37 °C).

The record behind these values is the supplement of paper PMC7877785.
